The target in the experiment is Candidatus Liberibacter asiaticus pyrophosphate-fructose-6-phosphate 1-phosphotransferase (Candidatus Liberibacter asiaticus). The experiment is described as follows: SEC. A general note: In gel filtration, larger molecules generally elute earlier.

The stoichiometry N is a count of units in the complex or per binding partner. “Candidatus Liberibacter asiaticus pyrophosphate-fructose-6-phosphate 1-phosphotransferase (enzyme)” had a stoichiometry N of 4.
